For this data set, the system named is Bacillus subtilis. In words: cleaved RNA product abundance (RNA/gDNA barcode ratio) relative to median wild-type variant (ratio to wild type); higher = more accumulation of the downstream cleavage product. As to conditions: cleavage site: cggR-gapA (positions -7 to +36 mutated). An outline of the steps:
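Sequencing of barcodes from gel-selected, reverse-transcribed cleaved RNA and from genomic DNA, with UMI collapsing, yielded a per-construct RNA:gDNA ratio. Scaled to the median construct with the unmutated site, this ratio is the cleaved product abundance. The barcoded reporters (truncated aprE or tetM mRNAs with mutagenized RNase Y cleavage-site windows) were integrated into the B. subtilis chromosome, and cultures grew in LB at 37°C from OD600 0.0003 to 0.3.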

Where [1] appears, read: experiment (reporter, strain, medium): exp 4a: truncated aprE reporter, strain BJT201 with 2% xylose (RNase J1 expressed).
The mark [2] stands for this setting: experiment (reporter, strain, medium): exp 2b: truncated aprE reporter, strain BJT200.

With “ACAGACGAAGGAGCCGCAAAGAAGTTATTAAGGCATGAATAATCCCTCAATATGAATATCTCTCACTTATTTAAA”, the “cleaved RNA product abundance” value under setting [1] stood at 0.0354.

Turning to “ACAGACGAAGGAGCCGCAAAGAAGTTATTAAGGCATGAATAATCCCTCAATATTAATATCTCTCACTTATTTAAA”, the “cleaved RNA product abundance” value under setting [1] is 0.0489.

With “ACAGACGAAGGAGCCGCAAAGAAGTTATTAAGGCATGAATAATCCCTCAATGTAAATATCTCTCACTTATTTAAA”, the “cleaved RNA product abundance” value under setting [1] was 0.0571.

On to “ACAGACGAAGGAGCCGCAAAGAAGTTATTAAGGCATGAATAATCCCTCAATTTAAATATCTCTCACTTATTTAAA”, for which the “cleaved RNA product abundance” value under setting [2] amounted to 0.059 and the “cleaved RNA product abundance” value under setting [1] was determined as 0.0584.

Take “ACAGACGAAGGAGCCGCAAAGAAGTTATTAAGGCATGAATAATCCCTCACTATAAATATCTCTCACTTATTTAAA”: the “cleaved RNA product abundance” value came to 0.083 under setting [2] and 0.136 under setting [1].

“ACAGACGAAGGAGCCGCAAAGAAGTTATTAAGGCATGAATAATCCCTCAGTATAAATATCTCTCACTTATTTAAA”: under setting [1], the “cleaved RNA product abundance” value is 0.0715.

As for “ACAGACGAAGGAGCCGCAAAGAAGTTATTAAGGCATGAATAATCCCTCATTATAAATATCTCTCACTTATTTAAA”, the “cleaved RNA product abundance” value by setting is: under setting [2], 0.0915; under setting [1], 0.0852.

For “ACAGACGAAGGAGCCGCAAAGAAGTTATTAAGGCATGAATAATCCCTCCATATAAATATCTCTCACTTATTTAAA”, under setting [2], the “cleaved RNA product abundance” value stood at 0.0936.

Take “ACAGACGAAGGAGCCGCAAAGAAGTTATTAAGGCATGAATAATCCCTCGATATAAATATCTCTCACTTATTTAAA”: under setting [1], the “cleaved RNA product abundance” value was 0.0814.

Turning to “ACAGACGAAGGAGCCGCAAAGAAGTTATTAAGGCATGAATAATCCCTCTATATAAATATCTCTCACTTATTTAAA”, the “cleaved RNA product abundance” value was 0.0791 under setting [2] and 0.0965 under setting [1].

For the sequence “ACAGACGAAGGAGCCGCAAAGAAGTTATTAAGGCATGAATAATCCCTGAATATAAATATCTCTCACTTATTTAAA”, the “cleaved RNA product abundance” value reads like this: under setting [2], 0.102; under setting [1], 0.0864.

For “ACAGACGAAGGAGCCGCAAAGAAGTTATTAAGGCATGAATAATCCCTTAATATAAATATCTCTCACTTATTTAAA”, the “cleaved RNA product abundance” value worked out at 0.411 under setting [2] and 0.291 under setting [1].

For “ACAGACGAAGGAGCCGCAAAGAAGTTATTAAGGCATGAATAATCCGTCAATATAAATATCTCTCACTTATTTAAA”, under setting [1], the “cleaved RNA product abundance” value came to 0.0753.

On to “ACAGACGAAGGAGCCGCAAAGAAGTTATTAAGGCATGAATAATCCTTCAATATAAATATCTCTCACTTATTTAAA”, for which the “cleaved RNA product abundance” value was determined as 0.115 under setting [2] and 0.13 under setting [1].

As for “ACAGACGAAGGAGCCGCAAAGAAGTTATTAAGGCATGAATAATCGCTCAATATAAATATCTCTCACTTATTTAAA”, the “cleaved RNA product abundance” value under setting [1] came to 0.0686.

Regarding “ACAGACGAAGGAGCCGCAAAGAAGTTATTAAGGCATGAATAATCTCTCAATATAAATATCTCTCACTTATTTAAA”, the “cleaved RNA product abundance” value under setting [2] turned out to be 0.0853 and the “cleaved RNA product abundance” value under setting [1] turned out to be 0.125.

As to “ACAGACGAAGGAGCCGCAAAGAAGTTATTAAGGCATGAATAATTCCTCAATATAAATATCTCTCACTTATTTAAA”, the “cleaved RNA product abundance” value is 0.107 under setting [2] and 0.133 under setting [1].

For the sequence “ACAGACGAAGGAGCCGCAAAGAAGTTATTAAGGCATGAATACTCCCTCAATATAAATATCTCTCACTTATTTAAA”, the “cleaved RNA product abundance” value under setting [1] was determined as 0.072.

Take “ACAGACGAAGGAGCCGCAAAGAAGTTATTAAGGCATGAATATTCCCTCAATATAAATATCTCTCACTTATTTAAA”: the “cleaved RNA product abundance” value came to 0.119 under setting [2] and 0.144 under setting [1].

“ACAGACGAAGGAGCCGCAAAGAAGTTATTAAGGCATGAATTATCCCTCAATATAAATATCTCTCACTTATTTAAA”: the “cleaved RNA product abundance” value runs as follows: under setting [2], 0.0689; under setting [1], 0.132.

As to “ACAGACGAAGGAGCCGCAAAGAAGTTATTAAGGCATGACTAATCCCTCAATATAAATATCTCTCACTTATTTAAA”, the “cleaved RNA product abundance” value by setting is: under setting [2], 0.101; under setting [1], 0.102.

“ACAGACGAAGGAGCCGCAAAGAAGTTATTAAGGCATGATTAATCCCTCAATATAAATATCTCTCACTTATTTAAA”: the “cleaved RNA product abundance” value under setting [2] came to 0.125 and the “cleaved RNA product abundance” value under setting [1] was 0.15.

Regarding “ACAGACGAAGGAGCCGCAAAGAAGTTATTAAGGCATTAATAATCCCTCAATATAAATATCTCTCACTTATTTAAA”, the “cleaved RNA product abundance” value was found to be 0.0847 under setting [2] and 0.108 under setting [1].

Take “ACAGACGAAGGAGCCGCAAAGAAGTTATTAAGGCGTGAATAATCCCTCAATATAAATATCTCTCACTTATTTAAA”: the “cleaved RNA product abundance” value under setting [2] is 0.097 and the “cleaved RNA product abundance” value under setting [1] came to 0.116.

Consider “ACAGACGAAGGAGCCGCAAAGAAGTTATTAAGGCTTGAATAATCCCTCAATATAAATATCTCTCACTTATTTAAA”, for which the “cleaved RNA product abundance” value runs as follows: under setting [2], 0.115; under setting [1], 0.11.

In the case of “ACAGACGAAGGAGCCGCAAAGAAGTTATTAAGGGAAAAATAATCCCTCAATATAAATATCTCTCACTTATTTAAA”, the “cleaved RNA product abundance” value under setting [1] was 0.771.

On to “ACAGACGAAGGAGCCGCAAAGAAGTTATTAAGGGAACAATAATCCCTCAATATAAATATCTCTCACTTATTTAAA”, for which the “cleaved RNA product abundance” value under setting [1] was determined as 0.79.

Take “ACAGACGAAGGAGCCGCAAAGAAGTTATTAAGGGAAGAAAAATCCCTCAATATAAATATCTCTCACTTATTTAAA”: the “cleaved RNA product abundance” value runs as follows: under setting [2], 0.684; under setting [1], 0.436.

Take “ACAGACGAAGGAGCCGCAAAGAAGTTATTAAGGGAAGAACAATCCCTCAATATAAATATCTCTCACTTATTTAAA”: the “cleaved RNA product abundance” value under setting [1] was found to be 0.73.

For “ACAGACGAAGGAGCCGCAAAGAAGTTATTAAGGGAAGAATAAACCCTCAATATAAATATCTCTCACTTATTTAAA”, the “cleaved RNA product abundance” value is, setting by setting: under setting [2], 0.301; under setting [1], 0.27.

“ACAGACGAAGGAGCCGCAAAGAAGTTATTAAGGGAAGAATAACCCCTCAATATAAATATCTCTCACTTATTTAAA”: the “cleaved RNA product abundance” value came out at 0.283 under setting [2] and 0.369 under setting [1].

As for “ACAGACGAAGGAGCCGCAAAGAAGTTATTAAGGGAAGAATAAGCCCTCAATATAAATATCTCTCACTTATTTAAA”, the “cleaved RNA product abundance” value reads like this: under setting [2], 0.433; under setting [1], 0.823.

As to “ACAGACGAAGGAGCCGCAAAGAAGTTATTAAGGGAAGAATAATACCTCAATATAAATATCTCTCACTTATTTAAA”, the “cleaved RNA product abundance” value by setting is: under setting [2], 0.101; under setting [1], 0.156.

Turning to “ACAGACGAAGGAGCCGCAAAGAAGTTATTAAGGGAAGAATAATCACTCAATATAAATATCTCTCACTTATTTAAA”, the “cleaved RNA product abundance” value worked out at 0.109 under setting [2] and 0.104 under setting [1].

In the case of “ACAGACGAAGGAGCCGCAAAGAAGTTATTAAGGGAAGAATAATCCATCAATATAAATATCTCTCACTTATTTAAA”, the “cleaved RNA product abundance” value was determined as 0.114 under setting [2] and 0.105 under setting [1].

As to “ACAGACGAAGGAGCCGCAAAGAAGTTATTAAGGGAAGAATAATCCCACAATATAAAAATCTCTCACTTATTTAAA”, under setting [1], the “cleaved RNA product abundance” value amounted to 0.118.

As for “ACAGACGAAGGAGCCGCAAAGAAGTTATTAAGGGAAGAATAATCCCTAAATATAAAAATCTCTCACTTATTTAAA”, under setting [1], the “cleaved RNA product abundance” value came to 0.415.

As to “ACAGACGAAGGAGCCGCAAAGAAGTTATTAAGGGAAGAATAATCCCTAAATATAAATATCTCTCACTTATTTAAA”, the “cleaved RNA product abundance” value under setting [1] was 0.326.

These data come from the supplement of paper PMC11780869.
